Data: patent US20210238260A1

What follows are substances tested against plasma purified human AT-III (antithrombin III) in complex with unfractionated heparin (human) (UniProt P01008) (assay: residual FIXa activity on Mesyl-D-CHG-Gly-Arg-AMC after timed incubation with AT-III/UFH (0-500 nM AT-III, 1 uM UFH); kapp from K0.5).

kapp (apparent second-order rate constant for inhibition) [M⁻¹ s⁻¹]	Substance
1100	FIXa-Y155F/K228N/K247N/N249S/R318Y/R338E/R403E/E410N (from UniProt P00740 47-191; P00740 227-461) (enzyme)
430	FIXa-Y155F/K247N/N249S/N260S/R318Y/R338E/R403E/E410N (from UniProt P00740 47-191; P00740 227-461) (enzyme)
810	FIXa-Y155F/K247N/N249S/R318Y/R338E/R403E (from UniProt P00740 47-191; P00740 227-461) (enzyme)
7300	FIXa-Y155F/K247N/N249S/R318Y/R403E/E410N (from UniProt P00740 47-191; P00740 227-461) (enzyme)
42000	FIXa-Y155F/K247N/N249S/R338E/R403E/E410N (from UniProt P00740 47-191; P00740 227-461) (enzyme)
2100	FIXa-Y155F/N260S/R318Y/R338E/R403E/E410N (from UniProt P00740 47-191; P00740 227-461) (enzyme)
1600	FIXa-Y155F/R318Y/R338E/N346D/R403E/E410N (from UniProt P00740 47-191; P00740 227-461) (enzyme)
8600	FIXa-Y155F/R318Y/R338E/T343R/R403E/E410N (from UniProt P00740 47-191; P00740 227-461) (enzyme)

These substances were tested against antithrombin III (AT-III), plasma purified human, in complex with unfractionated heparin (UFH) (human) (UniProt P01008) (assay: inhibition of FIXa by AT-III/UFH, pseudo-first-order, residual activity on Mesyl-D-CHG-Gly-Arg-AMC).

kapp (second-order rate constant for inhibition) [M⁻¹ s⁻¹]	Substance
5300	FIXa-K228N/K247N/N249S/R318Y/R338E/T343R/R403E/E410N (from UniProt P00740 47-191; P00740 227-461) (enzyme)
9600	FIXa-K247N/N249S/R318Y/R338E/T343R/R403E/E410N (from UniProt P00740 47-191; P00740 227-461) (enzyme)
86000	FIXa-K247N/N249S/R338E/T343R/R403E/E410N (from UniProt P00740 47-191; P00740 227-461) (enzyme)
190000	FIXa-R338E/T343R/R403E (from UniProt P00740 47-191; P00740 227-461) (enzyme)
220000	FIXa-Y155F/K247N/N249S/R318Y/R338E/T343R/E410N (from UniProt P00740 47-191; P00740 227-461) (enzyme)
2300	FIXa-Y155F/K247N/N249S/R318Y/R338E/T343R/R403E (from UniProt P00740 47-191; P00740 227-461) (enzyme)
8700	FIXa-Y155F/K247N/N249S/R318Y/R338E/T343R/R403E/E410N (from UniProt P00740 47-191; P00740 227-461) (enzyme)
2100	FIXa-Y155F/K247N/N249S/R318Y/R403E (from UniProt P00740 47-191; P00740 227-461) (enzyme)
140000	FIXa-Y155F/K247N/N249S/T343R/R403E (from UniProt P00740 47-191; P00740 227-461) (enzyme)
2800	FIXa-Y155F/R318Y/R338E/T343R/R403E (from UniProt P00740 47-191; P00740 227-461) (enzyme)
55000	FIXa-Y155F/R318Y/T343R/R403E/E410N (from UniProt P00740 47-191; P00740 227-461) (enzyme)
280000	FIXa-Y155F/R338E/T343R/R403E/E410N (from UniProt P00740 47-191; P00740 227-461) (enzyme)

The remaining lines, values behind:

Substance	kapp (second-order rate constant for inhibition) [M⁻¹ s⁻¹]
FIXa-K228N/I251S/R318Y/R338E/R403E/E410N (from UniProt P00740 47-191; P00740 227-461) (enzyme)	900
FIXa-K247N/N249S/R318Y/R338E/T343R/R403E (from UniProt P00740 47-191; P00740 227-461) (enzyme)	1700
FIXa-N260S/R318Y/R338E/T343R/R403E/E410N (from UniProt P00740 47-191; P00740 227-461) (enzyme)	2600
FIXa-R318Y/R338E/T343R/R403E (from UniProt P00740 47-191; P00740 227-461) (enzyme)	5800
FIXa-R318Y/R338E/T343R/R403E/E410S (from UniProt P00740 47-191; P00740 227-461) (enzyme)	9900
FIXa-R318Y/T343R/R403E/E410N (from UniProt P00740 47-191; P00740 227-461) (enzyme)	93000
FIXa-Y155F/I251S/R338E/T343R/R403E (from UniProt P00740 47-191; P00740 227-461) (enzyme)	160000
FIXa-Y155F/K228N/I251S/R318Y/R338E/R403E/E410N (from UniProt P00740 47-191; P00740 227-461) (enzyme)	1300
FIXa-Y155F/K228N/K247N/N249S/R318Y/R338E/T343R/R403E/E410N (from UniProt P00740 47-191; P00740 227-461) (enzyme)	2200
FIXa-Y155F/K247N/N249S/R318Y/E410N (from UniProt P00740 47-191; P00740 227-461) (enzyme)	130000
FIXa-Y155F/K247N/N249S/R318Y/R338E (from UniProt P00740 47-191; P00740 227-461) (enzyme)	27000
FIXa-Y155F/K247N/N249S/R338E/R403E (from UniProt P00740 47-191; P00740 227-461) (enzyme)	13000
FIXa-Y155F/K247N/N249S/R338E/T343R (from UniProt P00740 47-191; P00740 227-461) (enzyme)	1.2e+07
FIXa-Y155F/K247N/N249S/R338E/T343R/R403E/E410N (from UniProt P00740 47-191; P00740 227-461) (enzyme)	89000
FIXa-Y155F/N260S/R318Y/R338E/T343R/R403E/E410N (from UniProt P00740 47-191; P00740 227-461) (enzyme)	2600
FIXa-Y155F/N260S/R338E/T343R/R403E (from UniProt P00740 47-191; P00740 227-461) (enzyme)	40000
FIXa-Y155F/R318Y/R338E/T343R/E410N (from UniProt P00740 47-191; P00740 227-461) (enzyme)	780000
FIXa-Y155F/R338E/T343R/R403E (from UniProt P00740 47-191; P00740 227-461) (enzyme)	93000
FIXa-Y155F/R338E/T343R/R403E/E410S (from UniProt P00740 47-191; P00740 227-461) (enzyme)	220000
